The target in assay [1] is T1, SARS-CoV-2 S protein ectodomain trimer, prefusion conformation, insect cell-expressed (SARS-CoV-2 Wuhan-Hu-1 (MN908947), UniProt P0DTC2, stabilised).
T1 construct: also called S trimer; trimeric S protein
In words: SPR; […] (100 nM, 30 s) […]; 1:1 Langmuir fit. The settings on record: both partners purified.

Assay [2] addresses T2, SARS-CoV-2 S protein ectodomain trimer in prefusion conformation (insect cell-expressed) (SARS-CoV-2 Wuhan-Hu-1 (MN908947), UniProt P0DTC2, stabilised).
T2 construct: also called trimeric SARS-CoV-2 S protein; S trimer
The assay can be described thus: SPR; […] (100 nM) […]; 1:1 Langmuir fit. To be noted: both partners purified. (In general: Surface plasmon resonance follows binding to a sensor surface in real time, without labels.)

We go through 2 molecules from PMC11650997 (Journal of Virology, 2024).

B1: pT1616 (human monoclonal antibody, IgG1) (antibody, V domains shown)
VH: QVQLVQSGAEVKKPGSSVKVSCKASGGTFSSYTISWVRQAPGQGLECMGRIIPILGIANYAQKFQGRVTITADKSTSIAYMEVSSLRSEDTAVYYCATEVGYSGYGSAEYFNHWGQGTPVTVSS
VL: QSVLTQPPSVSGAPGQRVTISCTGSNSNIGAGYDVHWYQQLPGTAPKLLIYANNNRPSGVPDRFSGSRSGTSASLVITGLQADDEADYYCQSYDSSLTGSLFGGGTKLTVL
notes: also called bnAb pT1616; nAb pT1616; source: HEK293ExPi, transfected, purified from the supernatant (Protein G, SEC)
As usually defined, the Kd is a measure of binding affinity in units of concentration. A low value points to tighter binding. As usually defined, the koff is the rate constant with which the complex falls apart. As a reminder, the kon is the rate constant with which the complex forms. Low values mean slower complex formation, high ones faster complex formation. In assay [1], B1 showed a Kd of 0.083 nM, a koff of 6.9e-05 s⁻¹ and a kon of 840000 M⁻¹ s⁻¹.

B2: pT1616 IgG1 (antibody, V domains shown)
VH: QVQLVQSGAEVKKPGSSVKVSCKASGGTFSSYTISWVRQAPGQGLECMGRIIPILGIANYAQKFQGRVTITADKSTSIAYMEVSSLRSEDTAVYYCATEVGYSGYGSAEYFNHWGQGTPVTVSS
VL: QSVLTQPPSVSGAPGQRVTISCTGSNSNIGAGYDVHWYQQLPGTAPKLLIYANNNRPSGVPDRFSGSRSGTSASLVITGLQADDEADYYCQSYDSSLTGSLFGGGTKLTVL
notes: also called bnAb pT1616; nAb pT1616; source: HEK293ExPi, transfected, purified from supernatant (Protein G, SEC)
On to B2, for which the “fold lower KD for the S trimer than for the monomeric RBD” value in assay [2] was more than 3 fold.
